In US20230212244A1 (IMMATICS BIOTECHNOLOGIES, published 2023):

Biological target: T1, HLA-A*02:01 (human)
T1 construct: MHC class I monomer made peptide-receptive by UV cleavage of a UV-sensitive ligand; also called peptide-receptive MHC molecules
Test: UV-ligand exchange ELISA (anti-β2m), peptide exchange yield grade
Excerpt: Candidate peptides for T cell based therapies according to the present invention were further tested for their MHC binding capacity (affinity). The individual peptide-MHC complexes were produced by UV-ligand exchange, where a UV-sensitive peptide is cleaved upon UV-irradiation, and exchanged with the peptide of interest as analyzed. Only peptide candidates that can effectively bind and stabilize the peptide-receptive MHC molecules prevent dissociation of the MHC complexes. To determine the yield of the exchange reaction, an ELISA was performed based on the detection of the light chain (β2m) of stabilized MHC complexes. The assay was performed as generally described in Rodenko et al. (Rodenko et al., 2006).
96 well MAXISorp plates (NUNC) were coated over night with 2ug/ml streptavidin in PBS at room temperature, washed 4× and blocked for1h at 37° C. in 2% BSA containing blocking buffer. Refolded HLA-A*02:01/MLA-001 monomers served as standards, covering the range of 15-500 ng/ml. Peptide-MHC monomers of the UV-exchange reaction were diluted 100 fold in blocking buffer. Samples were incubated for 1h at 37° C., washed four times, incubated with 2 ug/ml HRP conjugated anti-β2m for 1h at 37° C., washed again and detected with TMB solution that is stopped with […]. Absorption was measured at 450 nm. Candidate peptides that show a high exchange yield (preferably higher than 50%, most preferred higher than 75 %) are generally preferred for a generation and production of antibodies or fragments thereof, and/or T cell receptors or fragments thereof, as they show sufficient avidity to the MHC molecules and prevent dissociation of the MHC complexes.

Row | Binder | peptide exchange yield [%]
1 | KLYSRLVYV [peptide KLYSRLVYV (SEQ ID NO: 96)] | 20 to 50
2 | KTLGKLWRL [peptide KTLGKLWRL (SEQ ID NO: 64)] | 20 to 50
3 | GLDDGPDFL [peptide GLDDGPDFL (SEQ ID NO: 66)] | 20 to 50
4 | GMLNEAEGKAIKL [peptide GMLNEAEGKAIKL (SEQ ID NO: 69)] | 20 to 50
5 | KLDIKVETV [peptide KLDIKVETV (SEQ ID NO: 88)] | ≥ 75
6 | ALMLQGVDLL [peptide ALMLQGVDLL (SEQ ID NO: 8)] | 50 to 75
7 | KLFSILSTV [peptide KLFSILSTV (SEQ ID NO: 63)] | 20 to 50
8 | LLFDAPDLRL [peptide LLFDAPDLRL (SEQ ID NO: 87)] | 50 to 75
9 | AMNGKSFSV [peptide AMNGKSFSV (SEQ ID NO: 98)] | 20 to 50
10 | KLLKLFQGV [peptide KLLKLFQGV (SEQ ID NO: 61)] | 50 to 75
11 | EMIENIQSV [peptide EMIENIQSV (SEQ ID NO: 75)] | 20 to 50
12 | KLLEVDLDTV [peptide KLLEVDLDTV (SEQ ID NO: 99)] | 50 to 75
13 | LLTDNVVKL [peptide LLTDNWKL (SEQ ID NO: 59)] | 50 to 75
14 | KSMDIVLTV [peptide KSMDIVLTV (SEQ ID NO: 94)] | 50 to 75
15 | KVFPGKISV [peptide KVFPGKISV (SEQ ID NO: 86)] | 20 to 50
16 | ILHDINSDGVL [peptide ILHDINSDGVL (SEQ ID NO: 85)] | 20 to 50
17 | GLSEGHTFQV [peptide GLSEGHTFQV (SEQ ID NO: 101)] | 50 to 75
18 | FLFGYPKRL [peptide FLFGYPKRL (SEQ ID NO: 103)] | 20 to 50
19 | ALDPELLLL [peptide ALDPELLLL (SEQ ID NO: 78)] | 20 to 50
20 | ALLSQQTHL [peptide ALLSQQTHL (SEQ ID NO: 81)] | 50 to 75
21 | FLAELPGSLSL [peptide FLAELPGSLSL (SEQ ID NO: 6)] | 50 to 75
22 | AMADKMDMSL [peptide AMADKMDMSL (SEQ ID NO: 58)] | 20 to 50
23 | KILVSLIEV [peptide KILVSLIEV (SEQ ID NO: 102)] | 50 to 75
24 | ILDDHLSRV [peptide ILDDHLSRV (SEQ ID NO: 9)] | 20 to 50
25 | GLLKPGLNVVL (also called …) [peptide GLLKPGLNVVL (SEQ ID NO: 90)] | 50 to 75
26 | ALWWGVVTV (also called ALWWGWTV) [peptide ALWWGVVTV (SEQ ID NO: 97)] | 20 to 50
27 | AILDAHIEV [peptide AILDAHIEV (SEQ ID NO: 95)] | ≥ 75

More lines, now with the values ahead:

Row | peptide exchange yield [%] | Binder
28 | 50 to 75 | YLIGEKQHYL [peptide YLIGEKQHYL (SEQ ID NO: 76)]
29 | 50 to 75 | YLMGFLHAV [peptide YLMGFLHAV (SEQ ID NO: 74)]
30 | 50 to 75 | WIDDTSAFV [peptide WIDDTSAFV (SEQ ID NO: 92)]
31 | 50 to 75 | SMVEDITGLRL [peptide SMVEDITGLRL (SEQ ID NO: 84)]
32 | 20 to 50 | QVDEVVDIMRV (also called QVDEVVDIMRV) [peptide … (SEQ ID NO: 80)]
33 | 50 to 75 | SILQFVHMV [peptide SILQFVHMV (SEQ ID NO: 68)]
34 | 50 to 75 | MISELEVRL [peptide MISELEVRL (SEQ ID NO: 70)]
35 | 50 to 75 | SLIEYEFRV [peptide SLIEYEFRV (SEQ ID NO: 89)]
36 | 50 to 75 | SLDDFLATA [peptide SLDDFLATA (SEQ ID NO: 100)]
37 | 20 to 50 | SLLKRDFGA [peptide SLLKRDFGA (SEQ ID NO: 77)]
38 | 20 to 50 | VLDEDEPRFL [peptide VLDEDEPRFL (SEQ ID NO: 60)]
39 | 50 to 75 | YLFDIAVSM [peptide YLFDIAVSM (SEQ ID NO: 73)]
40 | 50 to 75 | RLWTEIPTAI [peptide RLWTEIPTAI (SEQ ID NO: 71)]
41 | 20 to 50 | VLFTDEGVPKFL [peptide VLFTDEGVPKFL (SEQ ID NO: 56)]
42 | 50 to 75 | YLLDYPNNLL [peptide YLLDYPNNLL (SEQ ID NO: 72)]
43 | 50 to 75 | TVDVATPSV [peptide TVDVATPSV (SEQ ID NO: 91)]
44 | 20 to 50 | QLYEEPDTKL [peptide QLYEEPDTKL (SEQ ID NO: 82)]
45 | 20 to 50 | SLAADQLLKL [peptide SLAADQLLKL (SEQ ID NO: 79)]
46 | 50 to 75 | SLNDLEKDVMLL [peptide SLNDLEKDVMLL (SEQ ID NO: 67)]
47 | 20 to 50 | YLTRHLAVL [peptide YLTRHLAVL (SEQ ID NO: 7)]
48 | 50 to 75 | LTIEDGIFEV [peptide LTIEDGIFEV (SEQ ID NO: 83)]
49 | 50 to 75 | NLLEKENYL [peptide NLLEKENYL (SEQ ID NO: 57)]
50 | ≥ 75 | SLQELRLLL [peptide SLQELRLLL (SEQ ID NO: 93)]
51 | 20 to 50 | YLAPENGYL [peptide YLAPENGYL (SEQ ID NO: 62)]
